Measurements as given in IntAct's records for PubMed 14504388.

B1: Protein phosphatase 2C 77 (Arabidopsis thaliana (Mouse-ear cress)), O04719 (parent)
chain: MDEVSPAVAVPFRPFTDPHAGLRGYCNGESRVTLPESSCSGDGAMKDSSFEINTRQDSLTSSSSAMAGVDISAGDEINGSDEFDPRSMNQSEKKVLSRTESRSLFEFKCVPLYGVTSICGRRPEMEDSVSTIPRFLQVSSSSLLDGRVTNGFNPHLSAHFFGVYDGHGGSQVANYCRERMHLALTEEIVKEKPEFCDGDTWQEKWKKALFNSFMRVDSEIETVAHAPETVGSTSVVAVVFPTHIFVANCGDSRAVLCRGKTPLALSVDHKPDRDDEAARIEAAGGKVIRWNGARVFGVLAMSRSIGDRYLKPSVIPDPEVTSVRRVKEDDCLILASDGLWDVMTNEEVCDLARKRILLWHKKNAMAGEALLPAEKRGEGKDPAAMSAAEYLSKMALQKGSKDNISVVVVDLKGIRKFKSKSLN
partner: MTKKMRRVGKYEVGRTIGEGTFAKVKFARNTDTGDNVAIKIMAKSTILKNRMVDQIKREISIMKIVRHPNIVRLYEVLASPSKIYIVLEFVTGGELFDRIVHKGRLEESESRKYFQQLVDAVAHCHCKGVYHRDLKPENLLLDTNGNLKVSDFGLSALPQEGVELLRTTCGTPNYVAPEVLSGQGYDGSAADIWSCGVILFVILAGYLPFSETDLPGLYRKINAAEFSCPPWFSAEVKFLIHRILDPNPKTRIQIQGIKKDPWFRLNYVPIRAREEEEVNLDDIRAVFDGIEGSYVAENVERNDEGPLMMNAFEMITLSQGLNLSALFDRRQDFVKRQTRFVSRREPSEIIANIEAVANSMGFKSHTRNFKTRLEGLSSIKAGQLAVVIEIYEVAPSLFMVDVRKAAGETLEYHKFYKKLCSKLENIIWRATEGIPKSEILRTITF
B2: CBL-interacting serine/threonine-protein kinase 24 (Arabidopsis thaliana (Mouse-ear cress)), Q9LDI3 (parent)
chain: B1 partner

Variants of: B1
Conditions: with cipko_arath CIPK24, Q9LDI3

Variant | effect of a mutation on the interaction
MDEVSPAVAVPFRPFTDPHAGLRGYCNGESRVTLPESSCSGDGAMKDSSFEINTRQDSLTSSSSAMAGVDISAGDEINGSDEFDPRSMNQSEKKVLSRTESRSLFEFKCVPLYGVTSICGRRPEMEDSVSTIPRFLQVSSSSLLDGRVTNGFNPHLSAHFFDVYDGHGGSQVANYCRERMHLALTEEIVKEKPEFCDGDTWQEKWKKALFNSFMRVDSEIETVAHAPETVGSTSVVAVVFPTHIFVANCGDSRAVLCRGKTPLALSVDHKPDRDDEAARIEAAGGKVIRWNGARVFGVLAMSRSIGDRYLKPSVIPDPEVTSVRRVKEDDCLILASDGLWDVMTNEEVCDLARKRILLWHKKNAMAGEALLPAEKRGEGKDPAAMSAAEYLSKMALQKGSKDNISVVVVDLKGIRKFKSKSLN [G162D] | decreasing interaction
MDEVSPAVAVPFRPFTDPHAGLRGYCNGESRVTLPESSCSGDGAMKDSSFEINTRQDSLTSSSSAMAGVDISAGDEINGSDEFDPRSMNQSEKKVLSRTESRSLFEFKCVPLYGVTSICGRRPEMEDSVSTIPRFLQVSSSSLLDGRVTNGFNPHLSAHFFGVYDGHDGSQVANYCRERMHLALTEEIVKEKPEFCDGDTWQEKWKKALFNSFMRVDSEIETVAHAPETVGSTSVVAVVFPTHIFVANCGDSRAVLCRGKTPLALSVDHKPDRDDEAARIEAAGGKVIRWNGARVFGVLAMSRSIGDRYLKPSVIPDPEVTSVRRVKEDDCLILASDGLWDVMTNEEVCDLARKRILLWHKKNAMAGEALLPAEKRGEGKDPAAMSAAEYLSKMALQKGSKDNISVVVVDLKGIRKFKSKSLN [G168D] | decreasing interaction

Variants of: B2
Conditions: with ABI2, O04719

Variant | effect of a mutation on the interaction
MTKKMRRVGKYEVGRTIGEGTFAKVKFARNTDTGDNVAIKIMAKSTILKNRMVDQIKREISIMKIVRHPNIVRLYEVLASPSKIYIVLEFVTGGELFDRIVHKGRLEESESRKYFQQLVDAVAHCHCKGVYHRDLKPENLLLDTNGNLKVSDFGLSALPQEGVELLRTTCGTPNYVAPEVLSGQGYDGSAADIWSCGVILFVILAGYLPFSETDLPGLYRKINAAEFSCPPWFSAEVKFLIHRILDPNPKTRIQIQGIKKDPWFRLNYVPIRAREEEEVNLDDIRAVFDGIEGSYVAENVERNDEGPLMMNAFEMITLSQGLNLSALFDRRQDFVKRQTAAVSRREPSEIIANIEAVANSMGFKSHTRNFKTRLEGLSSIKAGQLAVVIEIYEVAPSLFMVDVRKAAGETLEYHKFYKKLCSKLENIIWRATEGIPKSEILRTITF [R340A;F341A] | decreasing interaction
